Test results as given in article PMC8630788.
One block for each molecule: values may come before it.

Tests used:
[1] = biological target: optimized bait-PAR-Grb2, GFP-fused (with inserted flexible linker sequences between fluorophore and Grb2) (UniProt P62993); assay: TIR-FRAP on bait micropatterns; live HeLa cells co-transfected with bait-PAR-Grb2 and prey on anti-HA patterns; EGF (170 nM) for at least 5 min before FRAP; single patterns bleached for 500 ms; bi-exponential, diffusion-uncoupled two-component fit
[2] = biological target: optimized bait-PAR-Grb2, GFP-fused (with inserted flexible linker sequences between fluorophore and Grb2) (UniProt P62993); assay: subcellular micropatterning (bait-prey copatterning, TIRF microscopy); live HeLa cells co-expressing bait-PAR-Grb2 and fluorescent prey on anti-HA antibody patterned COP substrate; bait-normalized prey contrast; after EGF stimulation (170 nM, 10 min)
[3] = biological target: optimized bait-PAR-Grb2, GFP-fused (with inserted flexible linker sequences between fluorophore and Grb2) (UniProt P62993); assay: subcellular micropatterning (bait-prey copatterning, TIRF microscopy); live HeLa cells co-expressing bait-PAR-Grb2 and fluorescent prey on anti-HA antibody patterned COP substrate; bait-normalized prey contrast; basal conditions, before EGF
[4] = biological target: optimized bait-PAR-Grb2, GFP-fused (with inserted flexible linker sequences between fluorophore and Grb2) (UniProt P62993); assay: as above; remark: listed apart in the source
[5] = biological target: optimized bait-PAR-Grb2, RFP-fused (UniProt P62993); assay: subcellular micropatterning (bait-prey copatterning, TIRF microscopy); competition in live HeLa cells: bait-PAR-Grb2-RFP and GFP-fused SOS1 on anti-HA patterns, cyclo(YpVNFΦrpPRR) added to the cells (100 μM over time; dose-response); bait-normalized contrast set between 0 and 100%
[6] = biological target: optimized bait-PAR-Grb2, RFP-fused (UniProt P62993); assay: subcellular micropatterning (bait-prey copatterning, TIRF microscopy); competition in live HeLa cells: bait-PAR-Grb2-RFP and Gab1-GFP on anti-HA patterns, cyclo(YpVNFΦrpPRR) added to the cells (100 μM over time; dose-response); bait-normalized contrast set between 0 and 100%
[7] = biological target: optimized bait-PAR-Grb2, RFP-fused, P62993; assay: subcellular micropatterning (bait-prey copatterning, TIRF microscopy); live HeLa cells co-expressing bait-PAR-Grb2 and fluorescent prey on anti-HA antibody patterned COP substrate; bait-normalized prey contrast; basal conditions, before EGF; conditions: remark: other sources report otherwise
[8] = biological target: optimized bait-PAR-Grb2, RFP-fused, P62993; assay: TIR-FRAP on bait micropatterns; live HeLa cells co-transfected with bait-PAR-Grb2 and prey on anti-HA patterns; EGF (170 nM) for at least 5 min before FRAP; single patterns bleached for 500 ms; bi-exponential, diffusion-uncoupled two-component fit; conditions: remark: other sources report otherwise
[9] = biological target: optimized bait-PAR-Grb2, RFP-fused, P62993; assay: subcellular micropatterning (bait-prey copatterning, TIRF microscopy); live HeLa cells co-expressing bait-PAR-Grb2 and fluorescent prey on anti-HA antibody patterned COP substrate; bait-normalized prey contrast; after EGF stimulation (170 nM, 10 min); conditions: remark: other sources report otherwise
[10] = biological target: optimized bait-PAR-Grb2, RFP-fused, P62993; assay: subcellular micropatterning (bait-prey copatterning, TIRF microscopy); live HeLa cells with bait-PAR-Grb2-RFP and GFP-fused Gab1 or SOS1 on anti-HA patterns, treated with 10 μM actinomycin D, copatterning followed over time; conditions: remark: other sources report otherwise

half-time of dissociation (FRAP) [1]: 10 s | k slow (exchange rate, FRAP) [1]: 0.103 s⁻¹ | bait-normalized fluorescence contrast <c prey/bait> [2]: 0.45 | bait-normalized fluorescence contrast <c prey/bait> [3]: 0.21 | bait-normalized fluorescence contrast <c prey/bait> [4]: 0.14
Molecule: SHC-transforming protein 1 (Shc1), RFP-fused (from UniProt P29353 1-583) (natural protein)

EC50 [5]: 63 µM | dissociation half-life of SOS1 from Grb2 at 100 μM peptide [5]: 0.6 min | maximum prey dissociation at 100 μM peptide (SOS1 from Grb2) [5]: 70 to 75% | EC50 [6]: 68 µM | dissociation half-life of Gab1 from Grb2 at 100 μM peptide [6]: 0.7 min | maximum prey dissociation at 100 μM peptide (Gab1 from Grb2) [6]: 70 to 75%
Molecule: cell-permeable cyclic peptide cyclo(YpVNFΦrpPRR)

bait-normalized fluorescence contrast <c prey/bait> [7]: 0.55 | half-time of dissociation (FRAP) [8]: 13 s | k slow (exchange rate, FRAP) [8]: 0.074 s⁻¹ | bait-normalized fluorescence contrast <c prey/bait> [9]: 0.56 | dissociation half-life with 10 μM actinomycin D [10]: 1.4 min | reduction of copatterning with 10 μM actinomycin D [10]: 25%
B1: son of sevenless protein 1 (SOS1), GFP-fused, Q07889 1-1333 (natural protein)
chain: MQAQQLPYEFFSEENAPKWRGLLVPALKKVQGQVHPTLESNDDALQYVEELILQLLNMLCQAQPRSASDVEERVQKSFPHPIDKWAIADAQSAIEKRKRRNPLSLPVEKIHPLLKEVLGYKIDHQVSVYIVAVLEYISADILKLVGNYVRNIRHYEITKQDIKVAMCADKVLMDMFHQDVEDINILSLTDEEPSTSGEQTYYDLVKAFMAEIRQYIRELNLIIKVFREPFVSNSKLFSANDVENIFSRIVDIHELSVKLLGHIEDTVEMTDEGSPHPLVGSCFEDLAEELAFDPYESYARDILRPGFHDRFLSQLSKPGAALYLQSIGEGFKEAVQYVLPRLLLAPVYHCLHYFELLKQLEEKSEDQEDKECLKQAITALLNVQSGMEKICSKSLAKRRLSESACRFYSQQMKGKQLAIKKMNEIQKNIDGWEGKDIGQCCNEFIMEGTLTRVGAKHERHIFLFDGLMICCKSNHGQPRLPGASNAEYRLKEKFFMRKVQINDKDDTNEYKHAFEIILKDENSVIFSAKSAEEKNNWMAALISLQYRSTLERMLDVTMLQEEKEEQMRLPSADVYRFAEPDSEENIIFEENMQPKAGIPIIKAGTVIKLIERLTYHMYADPNFVRTFLTTYRSFCKPQELLSLIIERFEIPEPEPTEADRIAIENGDQPLSAELKRFRKEYIQPVQLRVLNVCRHWVEHHFYDFERDAYLLQRMEEFIGTVRGKAMKKWVESITKIIQRKKIARDNGPGHNITFQSSPPTVEWHISRPGHIETFDLLTLHPIEIARQLTLLESDLYRAVQPSELVGSVWTKEDKEINSPNLLKMIRHTTNLTLWFEKCIVETENLEERVAVVSRIIEILQVFQELNNFNGVLEVVSAMNSSPVYRLDHTFEQIPSRQKKILEEAHELSEDHYKKYLAKLRSINPPCVPFFGIYLTNILKTEEGNPEVLKRHGKELINFSKRRKVAEITGEIQQYQNQPYCLRVESDIKRFFENLNPMGNSMEKEFTDYLFNKSLEIEPRNPKPLPRFPKKYSYPLKSPGVRPSNPRPGTMRHPTPLQQEPRKISYSRIPESETESTASAPNSPRTPLTPPPASGASSTTDVCSVFDSDHSSPFHSSNDTVFIQVTLPHGPRSASVSSISLTKGTDEVPVPPPVPPRRRPESAPAESSPSKIMSKHLDSPPAIPPRQPTSKAYSPRYSISDRTSISDPPESPPLLPPREPVRTPDVFSSSPLHLQPPPLGKKSDHGNAFFPNSPSPFTPPPPQTPSPHGTRRHLPSPPLTQEVDLHSIAGPPVPPRQSTSQHIPKLPPKTYKREHTHPSMHRDGPPLLENAHSS
